Assay results from US20230265151A1, “GIP/GLP1 CO-AGONIST COMPOUNDS” (priority 2020, published 2023).
*1 amine or outer side, *2 acyl side, *3 side chain or, on linkers, in order; H or OH if unused. Where no end group is shown, it is not given here. Side-chain parts run from the residue outwards. [ ]: non-standard residue; d: D form. The star is where a group is joined. αMePhe(2-F) = C[C@](N)(Cc1ccccc1F)C(=O)O; γGlu = O=C(O)[C@H](CCC(=O)[*:2])N[*:1]; C14 diacid = O=C(O)CCCCCCCCCCCCC(=O)*; αMeY = C[C@](N)(Cc1ccc(O)cc1)C(=O)O; αMeF = C[C@](N)(Cc1ccccc1)C(=O)O; αMeL = CC(C)C[C@](C)(N)C(=O)O; Orn = NCCC[C@H](N)C(=O)O; AEEA = NCCOCCOCC(=O)O; Aib = CC(C)(N)C(=O)O

Experiments:
Assay in all cases: cell-based or functional assay
human GIP receptor = target: T1, human GIP receptor (human, UniProt P48546 22-466)
T1 sequence (looked up): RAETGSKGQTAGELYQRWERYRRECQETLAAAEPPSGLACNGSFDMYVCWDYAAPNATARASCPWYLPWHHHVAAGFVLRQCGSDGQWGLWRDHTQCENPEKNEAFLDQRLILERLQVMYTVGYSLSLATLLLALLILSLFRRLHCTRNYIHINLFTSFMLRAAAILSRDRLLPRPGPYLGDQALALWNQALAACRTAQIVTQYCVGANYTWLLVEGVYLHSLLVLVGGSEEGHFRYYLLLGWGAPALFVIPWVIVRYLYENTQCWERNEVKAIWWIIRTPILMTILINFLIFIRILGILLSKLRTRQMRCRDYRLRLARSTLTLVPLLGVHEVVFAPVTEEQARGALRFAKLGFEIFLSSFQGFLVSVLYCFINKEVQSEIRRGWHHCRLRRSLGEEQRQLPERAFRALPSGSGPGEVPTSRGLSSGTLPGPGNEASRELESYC

human glucagon receptor = human glucagon receptor (human, UniProt P47871 26-477)
human GLP-1 receptor = human GLP-1 receptor (human, UniProt P43220 24-463)

Row | Binder | EC50, cAMP (human GIP receptor) | Emax, cAMP (human GIP receptor) | EC50, cAMP (human glucagon receptor) | EC50, cAMP (human GLP-1 receptor) | Emax, cAMP (human GLP-1 receptor)
1 | YXEGTXTSDXSIXLDXKAQXEFIKXLIEGGPSSGAPPPS (Aib2, αMeF(2F)6, 4Pal10, αMeL13, Orn16, Aib20, αMeF25, K17 and K24: K(AEEA2-(γ-Glu)-CO-(CH2)12-CO2H), C-terminal NH2) [Example 83] | 0.0223 nM | 89.6% | > 9950 nM | 0.451 nM | –
2 | YXEGTXTSDKSIXLDXIAQXKFIXXLIEGGPSSGAPPPS (Aib2, αMeF(2F)6, αMeL13, Orn16, Aib20, D-Glu24, αMeY25, K10 and K21: K(AEEA2-(γ-Glu)-CO-(CH2)12-CO2H), C-terminal NH2) [Example 105] | 0.0366 nM | – | > 9950 nM | 0.52 nM | –
3 | YXEGTXTSDVSIXLDXKAQXEXIXXLIEGGKSSGAPPPS (Aib2, αMeF(2F)6, αMeL13, Orn16, Aib20, αMeF22, D-Glu24, αMeY25, K17 and K31: K(AEEA2-(γ-Glu)-CO-(CH2)12-CO2H), C-terminal NH2) [Example 92] | 0.0251 nM | – | > 9950 nM | 0.942 nM | –
4 | YXEGTXTSDXSIXLDXKAQXKFIXXLIEGGPSSGAPPPS (Aib2, αMeF(2F)6, 4Pal10, αMeL13, Orn16, Aib20, D-Glu24, αMeY25, K17 and K21: K(AEEA-(γ-Glu)-CO-(CH2)12-CO2H), C-terminal NH2) [Example 76] | 0.0205 nM | – | > 9950 nM | 0.527 nM | –
5 | YXEGTXTSDXSIXLDXKAQXEXIXXLIEGGKSSGAPPPS (Aib2, αMeF(2F)6, 4Pal10, αMeL13, Orn16, Aib20, αMeF(2F)22, D-Glu24, αMeY25, K17 and K31: K(AEEA2-(γ-Glu)-CO-(CH2)12-CO2H), C-terminal NH2) [Example 88] | 0.00884 nM | 85.1% | > 9950 nM | 6.08 nM | 97.1%
6 | YXEGTXTSDXSIXLDXKAQXEFIGXLIEGGKSSGAPPPS (Aib2, αMeF(2F)6, 4Pal10, αMeL13, Orn16, Aib20, αMeY25, K17 and K31: K(AEEA2-(γ-Glu)-CO-(CH2)12-CO2H), C-terminal NH2) [Example 104] | 0.0361 nM | 94.9% | > 9950 nM | 0.417 nM | –
7 | YXEGTXTSDXSIXLDXKAQXEFIKXLIEGGPSSGAPPPS (Aib2, αMeF(2F)6, 4Pal10, αMeL13, Orn16, Aib20, αMeY25, K17 and K24: K(AEEA3-(γ-Glu)-CO-(CH2)12-CO2H), C-terminal NH2) [Example 80] | 0.0245 nM | 92.4% | > 9950 nM | 0.718 nM | –
8 | YXEGTXTSDXSIXLDXKAQXGFIXXLIEGGKSSGAPPPS (Aib2, αMeF(2F)6, 4Pal10, αMeL13, Orn16, Aib20, D-Glu24, αMeY25, K17 and K31: K(AEEA2-(γ-Glu)-CO-(CH2)12-CO2H), C-terminal NH2) [Example 103] | 0.0305 nM | 92.8% | > 9950 nM | 2.1 nM | –
9 | YXEGTXTSDXSIXLDXKAQXKFIXXLIEGGPSSGAPPPS (Aib2, αMeF(2F)6, 4Pal10, αMeL13, Orn16, Aib20, D-Glu24, αMeY25, K17 and K21: K(AEEA3-(γ-Glu)-CO-(CH2)12-CO2H), C-terminal NH2) [Example 77] | 0.0288 nM | – | > 9950 nM | 3.03 nM | 87%
10 | YXEGTXTSDXSIXLDXKAQXEFIXXLIEGGKSSGAPPPS (Aib2, αMeF(2F)6, ChA10, αMeL13, Orn16, Aib20, D-Glu24, αMeY25, K17 and K31: K(AEEA2-(γ-Glu)-CO-(CH2)12-CO2H), C-terminal NH2) [Example 98] | 0.0148 nM | – | > 9950 nM | 0.227 nM | –
11 | YXEGTXTSDXSIXLDXKAQXEFIXXLIEGGKSSGAPPPS (Aib2, αMeF(2F)6, 4Pal10, αMeL13, Orn16, Aib20, D-Glu24, αMeY25, K17 and K31: K(AEEA2-CO-(CH2)12-CO2H), C-terminal NH2) [Example 9] | 0.0102 nM | – | > 9950 nM | 0.421 nM | –
12 | YXEGTXTSDXXIXLDXKAQXEFIXXLIEGGKSSGAPPPS (Aib2, αMeF(2F)6, 4Pal10, Aib11, αMeL13, Orn16, Aib20, D-Glu24, αMeY25, K17 and K31: K(AEEA2-(γ-Glu)-CO-(CH2)12-CO2H), C-terminal NH2) [Example 89] | 0.0301 nM | 88.9% | > 9950 nM | 1.03 nM | –
13 | YXEGTXTSDXSIXLDXKAQXEFIKXLIEGGPSSGAPPPS (Aib2, αMeF(2F)6, 4Pal10, αMeL13, Orn16, Aib20, αMeY25, K17 and K24: K(AEEA-(γ-Glu)-CO-(CH2)12-CO2H), C-terminal NH2) [Example 79] | 0.013 nM | – | > 9950 nM | 0.223 nM | –
14 | YXEGTXTSDXSIXLDXKAQXEXIXXLIEGGKSSGAPPPS (Aib2, αMeF(2F)6, Ac5c10, αMeL13, Orn16, Aib20, αMeF22, D-Glu24, αMeY25, K17 and K31: K(AEEA2-(γ-Glu)-CO-(CH2)12-CO2H), C-terminal NH2) [Example 94] | 0.0132 nM | – | > 9950 nM | 2.1 nM | 97.4%
15 | Y[Aib]EGT[αMePhe(2-F)]TSDK([AEEA-AEEA-γGlu-C14 diacid])SI[αMeL]LD[Orn]IAQ[Aib]EFIK([AEEA-AEEA-γGlu-C14 diacid])[αMeY]LIEGGPSSGAPPPS-NH2 [Example 106] | 0.0385 nM | 98.7% | > 9950 nM | 0.296 nM | –
16 | Y[Aib]EGT[αMePhe(2-F)]TSDV[Aib]I[αMeL]LD[Orn]K([AEEA-AEEA-γGlu-C14 diacid])AQ[Aib]E[αMeF]I[dE][αMeY]LIEGGK([AEEA-AEEA-γGlu-C14 diacid])SSGAPPPS-NH2 [Example 93] | 0.0448 nM | 99.4% | > 9950 nM | 0.575 nM | –
